In US20140170171A1:

Columns and labels:
[1] = molecular target: rat total IgG (Sigma-Aldrich) (rat); assay: ELISA, rat total IgG on plate, 10 ng TGF-beta in 100 uL 0.1M Tris pH 7.4 (0 mM NaCl), 18 h 4 C, bound TGF-beta detected with TGF-beta 1 ELISA kit
[2] = molecular target: rat total IgG (Sigma-Aldrich) (rat); assay: ELISA, rat total IgG on plate, 10 ng TGF-beta in 100 uL 10% glycerol in PBS, 18 h 4 C, bound TGF-beta detected with TGF-beta 1 ELISA kit
[3] = molecular target: rat total IgG (Sigma-Aldrich) (rat); assay: ELISA, rat total IgG on plate, 10 ng TGF-beta in 100 uL PBS, 18 h 4 C, bound TGF-beta detected with TGF-beta 1 ELISA kit
[4] = molecular target: rat total IgG (Sigma-Aldrich) (rat); assay: ELISA, rat total IgG on plate, 10 ng TGF-beta in 100 uL 10% glycerol in 0.1M Tris pH 7.4, 18 h 4 C, bound TGF-beta detected with TGF-beta 1 ELISA kit
[5] = molecular target: TGF-beta receptors on mink lung epithelial cells (ATCC CCL-64) (mink); assay: cell-based or functional assay
[6] = molecular target: total mouse IgG (Sigma-Aldrich) (mouse); assay: 20 ng TGF-beta + 1 ug soluble total mouse IgG, 0.5x PBS with NaOH to pH 11, room temperature, 5 min; Sepharose G-50 spin column eluate assayed by TGF-beta ELISA
[7] = molecular target: total mouse IgG (Sigma-Aldrich) (mouse); assay: 20 ng TGF-beta + 1 ug soluble total mouse IgG, PBS, room temperature, 5 min; Sepharose G-50 spin column eluate assayed by TGF-beta ELISA
[8] = molecular target: total mouse IgG (Sigma-Aldrich) (mouse); assay: 20 ng TGF-beta + 1 ug soluble total mouse IgG, PBS, 42 C, 5 min; Sepharose G-50 spin column eluate assayed by TGF-beta ELISA
[9] = molecular target: Mouse IgG1 (eBioscience) (mouse); assay: Sephadex G-50 gel filtration of the TGF-beta/IgG mixture (1:10 molar), fractions assayed by TGF-beta ELISA
[10] = molecular target: Mouse IgG2a (eBioscience) (mouse); assay: as above

Row | Substance | Cell Viability (OD450/Control OD450) at 0.25 pg/mL TIGG (OD450/Control OD450) [5] | Cell Viability (OD450/Control OD450) at 2.5 pg/mL TIGG (OD450/Control OD450) [5] | Cell Viability (OD450/Control OD450) at 25 pg/mL TIGG (OD450/Control OD450) [5] | Cell Viability (OD450/Control OD450) at 250 pg/mL TIGG (OD450/Control OD450) [5] | Cell Viability (OD450/Control OD450) at 2500 pg/mL TIGG (OD450/Control OD450) [5] | also measured
1 | TGF-beta (Leinco Technologies, St. Louis, Mo.) (ligand) | – | – | – | – | – | Net Absorbance (450) (absorbance (450)) [1]: 1.02; Net Absorbance (450) (absorbance (450)) [2]: 0; Net Absorbance (450) (absorbance (450)) [3]: 0.18; Net Absorbance (450) (absorbance (450)) [4]: 0.7
2 | purified mouse TIGG (Transforming Growth Factor-beta-bound IgG), intact | 0.965 | 0.924 | 0.897 | 0.817 | 0.678 | –
3 | Transforming growth factor-beta 1 (Peprotech) (from UniProt P01137 279-390) (ligand) | – | – | – | – | – | Net Absorbance (450) (absorbance (450)) [6]: 0.558; Net Absorbance (450) (absorbance (450)) [7]: 0.193; Net Absorbance (450) (absorbance (450)) [8]: 0.117; percent of TGF-beta eluting in the IgG-bound fraction [9]: 40 to 50%; percent of TGF-beta eluting in the IgG-bound fraction [10]: 40 to 50%
4 | Dissociated (Treated) TIGG | 0.621 | 0.645 | 0.651 | 0.651 | 0.616 | –
